Biological target: T1, HGF (UniProt P14210 32-728, limits assumed)
T1 construct: also called hepatocyte growth factor
Assay: SPR, HGF on CM-5 chip, 10 µg/ml c-Met chimera injected
Method: Surface Plasmon Resonance (SPR) was also used to investigate the binding of the mAbs to the different llama-human c-Met chimeras. 3000 RU of 36C4, 48A2 and HGF were coupled on a CM-5 chip in 10 mM NaAc (pH4.5). 60 μl of a 10 μg/ml solution of the different c-Met chimeras was run over the chip at a flow rate of 30 μl/min and the association for 2 min was evaluated. The chip was regenerated with 20 mM NaOH and 1 M NaCl.

T1 sequence (P14210 32-728 limits assumed): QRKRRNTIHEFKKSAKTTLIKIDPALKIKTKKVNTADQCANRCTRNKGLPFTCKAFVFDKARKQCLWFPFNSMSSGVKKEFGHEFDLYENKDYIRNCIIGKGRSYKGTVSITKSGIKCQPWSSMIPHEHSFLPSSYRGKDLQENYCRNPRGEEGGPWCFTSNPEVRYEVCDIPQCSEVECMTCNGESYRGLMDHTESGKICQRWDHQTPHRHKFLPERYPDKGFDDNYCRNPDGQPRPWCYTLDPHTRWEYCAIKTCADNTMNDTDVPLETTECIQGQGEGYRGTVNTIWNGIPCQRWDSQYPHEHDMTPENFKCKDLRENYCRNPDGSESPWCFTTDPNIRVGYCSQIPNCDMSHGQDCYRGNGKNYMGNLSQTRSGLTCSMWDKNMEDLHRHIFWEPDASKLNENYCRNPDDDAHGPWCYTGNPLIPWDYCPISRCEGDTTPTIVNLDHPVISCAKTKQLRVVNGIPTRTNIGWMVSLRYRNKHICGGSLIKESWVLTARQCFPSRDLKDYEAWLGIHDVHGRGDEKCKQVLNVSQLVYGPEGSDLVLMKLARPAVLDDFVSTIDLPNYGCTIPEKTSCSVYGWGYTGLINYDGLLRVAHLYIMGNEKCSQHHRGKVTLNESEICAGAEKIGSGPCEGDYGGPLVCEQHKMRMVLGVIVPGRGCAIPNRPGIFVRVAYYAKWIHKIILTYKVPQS

B1: LS1 (aa1-98) (receptor)
chain: ECKEALVKSRMNVNMQYQLPNFTAETRIQNVVLHKHHIYLGAVNYIYVLNDKDLQKVAEYKTGPVLEHPHCFPCEDCSHKANLSDGVWKDNINMALLVDTYYDDQLISCGSVNRGTCQRHVFPHNHTADIQSEVHCIFSPQIEEPSQCPDCVVSALGAKVLSSVKDRFINFFVGNTINSSYFPDHPLHSISVRRLKETKDGFMFLTDQSYIDVLPEFRDSYPIKYVHAFESNNFIYFLTVQRETLDAQTFHTRIIRFCSINSGLHSYMEMPLECILTEKRKKRSTKKEVFNILQAAYVSKPGAQLARQIGASLNDDILFGVFAQSKPDSAEPMDRSAMCAFPIKYVNDFFNKIVNKNNVRCLQHFYGPNHEHCFNRTLLRNSSGCEARRDEYRTEFTTALQRVDLFMGQFSEVLLTSISTFIKGDLTIANLGTSEGRFMQVVVSRSGPSTPHVNFLLDSHPVSPEVIVEHTLNQNGYTLVITGKKITKIPLNGLGCRHFQSCSQCLSAPPFVQCGWCHDKCVRSEECLSGTWTQQICLPAIYKVFPNSAPLEGGTRLTICGWDFGFRRNNKFDLKKTRVLLGNESCTLTLSESTMNTLKCTVGPAMNKHFNMSIIISNGHGTTQYSTFSYVDPVITSISPKYGPMAGGTLLTLTGNYLNSGNSRHISIGGKTCTLKSVSNSILECYTPAQTISTEFAVKLKIDLANRETSIFSYREDPIVYEIHPTKSFISGGSTITGVGKNLNSVSVPRMVINVHEAGRNFTVACQHRSNSEIICCTTPSLQQLNLQLPLKTKAFFMLDGILSKYFDLIYVHNPVFKPFEKPVMISMGNENVLEIKGNDIDPEAVKGEVLKVGNKSCENIHLHSEAVLCTVPNDLLKLNSELNIEWKQAISSTVLGKVIVQPDQNFT
notes: Ranges count on mature human c-Met
  binding result: binds
